# The RNAGym collection of RNA variant scans (doi:10.7554/elife.90254)
# B1: OR4K15 (parent)
# chain: GUUAACGGUCAUAGGCCAUGGAAACUAGGAGCACCAUUUCGCUGCCAGUGAAGAAAUGAACAAAGAAAAUCUGGGCCAGGCAGGCAUCAAAAGAAAUAGUCUUGCGCUCAACCAGAAAGUCUGUAAUCAUUUUAAGGGUA
# Variants of: B1
# Assay: self-cleavage, relative activity (ratio to wild type); higher = more cleavage; in vitro, sequencing; the parent is a self-cleaving ribozyme
row,Variant,self-cleavage
1,GUUAACGGUCAUAGGCCAUGGAAACUAGGAGCACCAUUUCGCUGCCAGUGAAGAAAUGAACAAAGAAAAUCUGGGCCAGGCAGGCAUCAAAAGAAAUAGUCUUGCGCCCAACCAGAAAGUCUGUAAUCAUUUUAAGGGUG [U108C A140G],0.01
2,GUUAACGGUCAUAGGCCAUGGAUACUAGGAGCACCAUUUCGCUGCCAGUGAAGAAAUGAACAAAGAAAAUCUGGGCCAGGCAGGCAUCAAAAGAAAUAGUCUUGCGCUCAACCAGAAAGUCUGUAAUCAUUUUAAGGGUA [A23U],1.19
3,GUUAACGGUCAUAGGCCAUGGAAACAAGGAGCACCAUUUCGCUGCCAGUGAAGAAGUGAACAAAGAAAAUCUGGGCCAGGCAGGCAUCAAAAGAAAUAGUCUUGCGCUCAACCAGAAAGUCUGUAAUCAUUUUAAGGGUA [U26A A56G],1.7
4,GUUAACGGUCAUAGGCCACGGAAACUAGGAGGACCAUUUCGCUGCCAGUGAAGAAAUGAACAAAGAAAAUCUGGGCCAGGCAGGCAUCAAAAGAAAUAGUCUUGCGCUCAACCAGAAAGUCUGUAAUCAUUUUAAGGGUA [U19C C32G],1.51
5,GUUAACGGUCAUAGGCCAUGGAAACUAGGAGCACCAUUUCGCUGCCAGUGAAGAAACGAACAAAGAAAAUCUGGGCCAGGCAGGCAUCAUAAGAAAUAGUCUUGCGCUCAACCAGAAAGUCUGUAAUCAUUUUAAGGGUA [U57C A90U],1.51
6,GUUAACGGUCAUAGGCCAUGGAGACUAGGAGCACCAUUUCGCUGCCAGUGAAGAAAUGAACAAAGAAAAUCUGGGCCAGGCAGGCAUCAUAAGAAAUAGUCUUGCGCUCAACCAGAAAGUCUGUAAUCAUUUUAAGGGUA [A23G A90U],1.85
7,GUUAACGGUCAUAGGCCAUGGAAACUAGGAGCACCAUUUCGCUGCCAGUGAAGAAAUGAACGAAGAAAAUCUGGGCCAGGCAGGCUUCAAAAGAAAUAGUCUUGCGCUCAACCAGAAAGUCUGUAAUCAUUUUAAGGGUA [A62G A86U],2.08
8,GUUAACGGUCAUAGGCCAUGGAAACUAGGAGCACCAUUUCGCUGCCAGUGAAGAAAUGAACAAAGAAAAUCUGGGCCGGGCAGGCAUCAAAAGAAAUAGUCUGGCGCUCAACCAGAAAGUCUGUAAUCAUUUUAAGGGUA [A78G U103G],0
9,GUUAACGGUCAUAGGCCAUGGAAACUAGGAGCACCAUUUCGCUGCCAGUGAAGAAAUGAACAAAGAAAAUCUGGGCCAGGCAGGCAUCAAAAGAAAUAGUCUUGCGCUCAACCAGAAAGUCUGUAAACAUUUUUAGGGUA [U127A A134U],1.36
10,GUUAACGGUCAUAGGCCAUGGAAACUAGGAGCACCAUUUCGCUGCCAGUGAAGAAAUUAACAAAGAAAAUCUGGGCCAGGCAGGCAUCAAAAGAAAUAGCCUUGCGCUCAACCAGAAAGUCUGUAAUCAUUUUAAGGGUA [G58U U100C],2.08
11,GUUAACGGUCAUAGGCCAUGGAAACUAGGAGCACCAUUUCGCUGCCAGUGAAGAAAUGAACAAAGAAGAUCUGGGCCAGGCAGGCAACAAAAGAAAUAGUCUUGCGCUCAACCAGAAAGUCUGUAAUCAUUUUAAGGGUA [A68G U87A],0.96
12,GUUAACGGUCAUAGGCCAUGGAAACUAGGAGCACCAUUUCGCUGCCAGUGAAGAUAUGAACAAAGAAAAUCUGGGCCAGGCAGGCAUCAAAAGAAAUAGUCUUGCGCUCGACCAGAAAGUCUGUAAUCAUUUUAAGGGUA [A55U A110G],0.23
13,GUUAACGGUCAUAGGCCAUGGAAACUAGGAGCACCAUUUCGCUGCCAGUGAAGAAAUGAACAAAGAAAAUCUGGGCCAGGCAGGCAUCAAAGGAAAUAGUCUUGCGCUCAACCAGAAAGUCUGUACUCAUUUUAAGGGUA [A92G A126C],0.94
14,GUUAACGGUCAUAGGCCAUGGAAACUAGGAGCACCAUUUCGCUGCCAGUGAAGAAAUGAACAAAGAAAAUCUGGGCCAGGCAGGCAUCAAAAGAAAUAGUCUUGCGCUCAACCAGAAAGCCUGUAAUCAUAUUAAGGGUA [U120C U131A],0.52
15,GUUAACGGUCAUAGGCCAUGGAAACUAGGAGCACCAUUUCGCUGCCAGUGACGAAAUGAACAAAGAAAAUCUGGGCCAGGCAGGCAUCAAAAGGAAUAGUCUUGCGCUCAACCAGAAAGUCUGUAAUCAUUUUAAGGGUA [A52C A94G],2.5
16,GUUAACGGUCGUAGGCCAUGGAAACUAGGAGCACCAUUUCGCUGCCAGUGAAGAAAUGAACAAAGAAAAUCUGGGCCAGGCAGGCAUCAAAAGAAAUAGUCAUGCGCUCAACCAGAAAGUCUGUAAUCAUUUUAAGGGUA [A11G U102A],0.58
17,GUUAACGGUCAUAGGCCGUGGAAACUAGGAGCACCAUUUCGCUGCCAGUGAAGAAAUGAACAAAGAAAAUCUGGGCCAGGCAGGCAUCAAAAGAAAUAGUCUAGCGCUCAACCAGAAAGUCUGUAAUCAUUUUAAGGGUA [A18G U103A],1.13
18,GUUAACGGUCAUAGGCCAUGGAAACUAGGAGCACCAUUUCGCUGCCAGUGAAGAAAUGAACAAAGAAAAUCUGGGCCAGGCAGGCAACAAAAGAAAUAGUCCUGCGCUCAACCAGAAAGUCUGUAAUCAUUUUAAGGGUA [U87A U102C],1.71
19,GUUAACGGUCAUAGGCCAUGGAAACUAGGAGCUCCAUUUCGCUGCCAGUGAAGAAAUGAACAAAGAAAAUCUGGGCCAGGCAGGCAUCAAAAGAAAUAGUCUUGCGCUCGACCAGAAAGUCUGUAAUCAUUUUAAGGGUA [A33U A110G],0.08
20,GUUGACGGUCAUAGGCCAUGGAAACUAGGAGCACCAUUUCGCUGCCAGUGAAGAAAUGGACAAAGAAAAUCUGGGCCAGGCAGGCAUCAAAAGAAAUAGUCUUGCGCUCAACCAGAAAGUCUGUAAUCAUUUUAAGGGUA [A4G A59G],1.04
21,GUUAACGGUCAUAGGCCAUGGAAACUAGGAACACCAUUUCGCUGCCAGUGAAGAAAUGAACAAAGAAAAUCUGGGCCAGGCAGGCAACAAAAGAAAUAGUCUUGCGCUCAACCAGAAAGUCUGUAAUCAUUUUAAGGGUA [G31A U87A],1.76

row,Variant,self-cleavage
1,GUUAACGGUCAUAGGCCAUGGAAACUAGGAGAACCAUUUCGCUGCCUGUGAAGAAAUGAACAAAGAAAAUCUGGGCCAGGCAGGCAUCAAAAGAAAUAGUCUUGCGCUCAACCAGAAAGUCUGUAAUCAUUUUAAGGGUA [C32A A47U],1.05
2,GUUAGCGGUCAUACGCCAUGGAAACUAGGAGCACCAUUUCGCUGCCAGUGAAGAAAUGAACAAAGAAAAUCUGGGCCAGGCAGGCAUCAAAAGAAAUAGUCUUGCGCUCAACCAGAAAGUCUGUAAUCAUUUUAAGGGUA [A5G G14C],1.57
3,GUUAACGGUCAUAGGCCAUGGAAACUAGGAGCACCAUUUCGCUGCCAGCGAAGAAAUGAACAAAGAAGAUCUGGGCCAGGCAGGCAUCAAAAGAAAUAGUCUUGCGCUCAACCAGAAAGUCUGUAAUCAUUUUAAGGGUA [U49C A68G],1.55
4,GUUAACGGUCAUAGGCCAUGGUAACUAGGAGCACCAUUUCGCUGCCAGUGAAGAAAUGAACAAAGAAAAUCUGGGCCAGGCAGGCAUCAAAUGAAAUAGUCUUGCGCUCAACCAGAAAGUCUGUAAUCAUUUUAAGGGUA [A22U A92U],2.17
5,GUUAACGGUCAUAGGCCAUGGAAACUAGGAGCACCAUUUCGCUGCCAGUGAAGAAAUGAACAAAGAAAAUCUGGGCUAGGCAGGCAUCAAAAGAAAUAGUCUUGCGCUCAACCAGGAAGUCUGUAAUCAUUUUAAGGGUA [C77U A116G],1.22
6,GUUAACGGACAUAGGCCAUGGAAACUAGGAGCACCAUUUCGCUGCCAGUGAAGAAAUGAACAAAGAAAAUCUGGGCCUGGCAGGCAUCAAAAGAAAUAGUCUUGCGCUCAACCAGAAAGUCUGUAAUCAUUUUAAGGGUA [U9A A78U],0.15
7,GUUAACUGUCAUAGGCCAUGGAAACUAGGAGCACCAUUUCGCUGCCAGUGAAGAAAUGAACAAAGAAAAUCUGGGCCAGGCAGGCAUCAAAAGAAAUAGUCUUGCGCUCAACCAGAAGGUCUGUAAUCAUUUUAAGGGUA [G7U A118G],1.38
8,GUUAACGGUCAUAGGCCAUGGAAACUGGGAGCACCAUUUCGCUGCCAGUGAAGAAAUGAACAAAGAAAAUCUGGGCCAGGCAGGCAUCAAAAGAAAUAGUCUUGCGCUCAACCAGAAUGUCUGUAAUCAUUUUAAGGGUA [A27G A118U],0.36
9,GUUAACGGUCAUAGGCCAUGGAAACUAGGAGCACCAUUUCGCUGCCAGUGAAGAAAUGAACAAAGUAAAUCUGGGCCAGGCAGGCAUCAAAAGAAAUAGUCUUGCGCUCAACCAGAAAGUCUGUGAUCAUUUUAAGGGUA [A66U A125G],0.25
10,GUUAACGGUCAUAGGCCAUGGAAACUAGGAGCACCAUUUCGCUGCCAGUGAAGAAAUGAACAAAGAAAAUCUGGGCCGGGCAGGCAUCAAAAGAAAUAGUCUUGCGCUCAACCAGAAAGUCUGUAAUCAUUUCAAGGGUA [A78G U133C],0.27
11,GUUAACGGUCAUAGGCCAUGGAAACUAGGAGCACCAUUUCGCUGCCAGUGAAGAAAUGAACAAAGAAAAUCUGGGCCAGGCAGGCAUCAAAAGAAAUAGUAUUGCGCUCAACCAGAAAGUCUGUAAUCAUUUUAAGGGUA [C101A],0.21
12,GUUAACGGUCAUAGGCCAUGGAAACUAGGAGCACCAUUUCGCUGCCAGUGAAGAAAUGAACAAAGAAAAUCUGGGCCAGGCAGGCAUCAAAAGAAAUAGUCUUGCGCUCAACCAGAAAGUCUGUAAUCAUUUUAAGGGGU [U139G A140U],1.51
13,GUUAACGGUCAUAGGCCAUGGAAACUAGGAGCACCAUUUCGCUGCCAGUGAAGAAAUGAACAAAGAAAAUCUGGGCCAGGCAGGCAUCAAAAGAAAUAGUCUUGCGCUCAACCAGAAAGUCUGCUAUCAUUUUAAGGGUA [U124C A125U],1.37
14,GUUAACGGUCAUAGGCCAUGGAAACUAGGAGCACCAUUUCGCUGCCAGUGAAGCAAUGAACAAAGAAAAUCUGGGCCAGGCAGGCAUCAAAAGAAAUAGUCUUGCGCUCAACCAGAAAGCCUGUAAUCAUUUUAAGGGUA [A54C U120C],0.93
15,GUUAACGGUCAUAGGCCAUGGAAACCAGGAGCACCAUUUCGCUGCCAGUGAAGAAAUGAACAAAGAAAAUCUGGGCCAGGCGGGCAUCAAAAGAAAUAGUCUUGCGCUCAACCAGAAAGUCUGUAAUCAUUUUAAGGGUA [U26C A82G],0.5
16,GUUAACGGUCAUAGGCCAUGGAGACUAGGAGCACCAUUUCGCUGUCAGUGAAGAAAUGAACAAAGAAAAUCUGGGCCAGGCAGGCAUCAAAAGAAAUAGUCUUGCGCUCAACCAGAAAGUCUGUAAUCAUUUUAAGGGUA [A23G C45U],1.23
17,GUUAACCGUCAUAGGCCAUGGAGACUAGGAGCACCAUUUCGCUGCCAGUGAAGAAAUGAACAAAGAAAAUCUGGGCCAGGCAGGCAUCAAAAGAAAUAGUCUUGCGCUCAACCAGAAAGUCUGUAAUCAUUUUAAGGGUA [G7C A23G],0.73
18,GUUAACGGUCAUAGGCCAUGGAAACUAGGAGCACCAUUUCGCUGCCAGUGAAGUAAUGAACAAAGAAAAUCUGGGCCAGGCAGGCAUCAAAAGAAAUAGUCUUGCGCUCAACCAGAAAGUCUGUAGUCAUUUUAAGGGUA [A54U A126G],1.6
19,GUUAACGGUCAUAGGCCAUGGAAACUAGGCGCACCAUUUCGCUGCCAGUGAAGAAAUGAACAAAGAAAAUCUGGGCCAGGCAGGCAUCGAAAGAAAUAGUCUUGCGCUCAACCAGAAAGUCUGUAAUCAUUUUAAGGGUA [A30C A89G],1.34
20,GUUAACGGUCAUAGGCCAUGGAAACUAGGAGCACCAUUUCGCUGCCAGUGAUGAAAUGAACAAAGAAAAUCUGGGCCAGGCAGGCAUCAAAAGAAAUAGUCUUGCGCUCAACCAGAAAGUCUGUAAUCAUUUUAAGAGUA [A52U G137A],1.58
